Results published in IntAct's records for PubMed 20062059.

B1: Exocyst complex component SEC3 (Saccharomyces cerevisiae), P33332 (parent)
chain: MRSSKSPFKRKSHSRETSHDENTSFFHKRTISGSSAHHSRNVSQGAVPSSAPPVSGGNYSHKRNVSRASNSSQTSNFLAEQYERDRKAIINCCFSRPDHKTGEPPNNYITHVRIIEDSKFPSSRPPPDSKLENKKKRLLILSAKPNNAKLIQIHKARENSDGSFQIGRTWQLTELVRVEKDLEISEGFILTMSKKYYWETNSAKERTVFIKSLITLYIQTFEGHVPELVNWDLSLFYLDERSYQRAVITNRPGSVSPIKSPTSNFTTNTTQSVGSVPFSAPTERTRRSETESVNPVSTPASVEYHAGMKSLNKAPYSSNSTLNEVNKRYELEQQQQQEEAELRRLEEQKRLQLQKENEMKRLEEERRIKQEERKRQMELEHQRQLEEEERKRQMELEAKKQMELKRQRQFEEEQRLKKERELLEIQRKQREQETAERLKKEEQEALAKKEEEEKSKRNKVDNESYTQEINGKVDNLLEDLNAVLAEETETTPTMQNGTYVPERSTARAHDQLKKPLNIAKVESLGGSDLNDSISLSDEIAGLNTSNLSGEDQDEKNDLSFEKGDEVRYSNNFEGEAPHVYHEVSIIQEEAPAVSQKLILPEENNESEALIESKEEIKTMENIDDEVLLEILTDINWSIEDDADSMIERIDLRLAETEYLFNQNLLSLQKIGPNIRPYEDKVNDECHRIIPTLSLFLMEMSNFSNDIENVESQDNGLQVESANKKLLWNTLDELLKTVSLDEISLNQLLECPIREKNLPWMENQLNLLLKAFQAIGSDGNEVEYNLREISGLKQRLQFYEKVTKIFLNRIVEEMQKKFSNIRGQDISHDQMIRILTTLLIFSPLILFCKEISQKSYQAIVENWNVSIQPVYMELWTKKISQLQGIDTNDEKMNELSLSQLLNEWDTFRKERKTNDINPVFKNSFSLLTECLQTMRQECIVYQNFVEVFFHISSKHNFEEYIKHFNDPDAPPILLDTVKVMQSDREAAVIETQLVSRIFQPIVTRLSSYFVELVKAEPTVAPALTFYLENEIKSLESSNHEFLLSAVTRMYTQIKQVWSDNVEEQVLHFERISNATTNGEILPGILDLPVGLKNSEDLFQFAKRSMDIKDTDEGYESIELMNSSFRKLSIAATRSITHKEVNSSINPNLSDTAALNNDYMETISLLVNSNWLTEMLSMLNFNKDGIFDTSLQNVKKVFDVEKESYASFLLRDTMPKLTAFVYGVSNIIENTNNVNMTNPSRWAAYSRQNLENILLAYTSHEIETLVKRLHTHMVNDFGYHQENAINNVLCDKLWSCIQGQTVSLYLKLYTVIDKHYRGTNIRFTKNDIISAFEEYKNA

Variants of: B1
Conditions: with rho1_yeast RHO1, P06780
rho1_yeast RHO1, P06780, sequence (P06780 whole entry): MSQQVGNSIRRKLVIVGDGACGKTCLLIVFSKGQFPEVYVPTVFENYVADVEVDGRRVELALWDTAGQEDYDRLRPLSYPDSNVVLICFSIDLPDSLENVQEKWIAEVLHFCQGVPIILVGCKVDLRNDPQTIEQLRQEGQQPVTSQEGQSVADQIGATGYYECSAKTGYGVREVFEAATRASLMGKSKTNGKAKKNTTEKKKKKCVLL

Row | Variant | effect of a mutation on the interaction
1 | L131A | disrupting interaction
2 | E199A | disrupting interaction
3 | K136A | disrupting interaction
